Experimental data taken from patent US20240124606A1.

T1: human CD73 (human) (UniProt P21589)
T1 sequence: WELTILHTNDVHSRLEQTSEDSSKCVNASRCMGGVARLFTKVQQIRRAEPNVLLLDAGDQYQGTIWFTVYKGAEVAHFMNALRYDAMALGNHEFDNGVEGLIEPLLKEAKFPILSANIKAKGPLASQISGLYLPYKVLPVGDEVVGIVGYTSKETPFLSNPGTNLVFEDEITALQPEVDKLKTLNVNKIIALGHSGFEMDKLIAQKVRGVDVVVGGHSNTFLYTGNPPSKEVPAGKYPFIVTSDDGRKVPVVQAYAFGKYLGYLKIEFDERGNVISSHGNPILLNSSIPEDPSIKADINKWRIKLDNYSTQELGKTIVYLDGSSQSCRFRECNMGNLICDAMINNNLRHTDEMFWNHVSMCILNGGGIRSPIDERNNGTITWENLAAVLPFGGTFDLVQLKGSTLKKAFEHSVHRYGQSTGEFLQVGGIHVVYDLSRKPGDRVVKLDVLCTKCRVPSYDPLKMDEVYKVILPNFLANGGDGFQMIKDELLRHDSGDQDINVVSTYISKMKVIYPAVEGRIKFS


Columns and labels:
mouse CD73 (mouse) = mouse CD73 (mouse) (UniProt Q61503); assay: flow cytometry, murine E0771 breast cancer cells, isotype control; PE against SSC-A
UniProt Q61503, sequence (Q61503 29-551 limits assumed): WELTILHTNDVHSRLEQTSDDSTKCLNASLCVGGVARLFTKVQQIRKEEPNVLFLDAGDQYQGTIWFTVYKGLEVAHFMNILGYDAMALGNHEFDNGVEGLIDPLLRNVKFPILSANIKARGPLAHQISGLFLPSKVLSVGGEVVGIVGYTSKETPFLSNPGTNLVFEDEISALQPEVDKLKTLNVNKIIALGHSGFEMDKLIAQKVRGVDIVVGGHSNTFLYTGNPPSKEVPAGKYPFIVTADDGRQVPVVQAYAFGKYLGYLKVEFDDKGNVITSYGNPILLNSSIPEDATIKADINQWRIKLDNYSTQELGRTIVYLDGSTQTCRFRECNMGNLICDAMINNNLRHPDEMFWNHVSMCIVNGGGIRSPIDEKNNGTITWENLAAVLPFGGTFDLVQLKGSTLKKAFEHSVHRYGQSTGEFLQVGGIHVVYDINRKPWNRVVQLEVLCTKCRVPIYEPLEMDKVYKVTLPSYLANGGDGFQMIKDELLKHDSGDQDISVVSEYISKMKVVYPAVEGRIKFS

human CD73 (human) [1] = target: T1, human CD73 (human); assay: flow cytometry, human PC3 prostate cancer cells, isotype control plot above the E7 plot; CD73-PE against SSC-A
human CD73 (human) [2] = target: T1, human CD73 (human); assay: flow cytometry, human PC3 prostate cancer cells, isotype control plot above the 2C5 plot (its gate is drawn larger than in the other plots); CD73-PE against SSC-A
human CD73 (human) [3] = target: T1, human CD73 (human); assay: flow cytometry, human PC3 prostate cancer cells, 10 ug/ml antibody, PE anti-mIgG secondary antibody; CD73-PE against SSC-A

percent of cells in the CD73 gate (mouse CD73 (mouse))	percent of cells in the CD73-PE gate (human CD73 (human) [1])	percent of cells in the CD73-PE gate (human CD73 (human) [2])	percent of cells in the CD73-PE gate (human CD73 (human) [3])	Molecule
0.8	1.02	2.84		Isotype (antibody)
			99.7	2C5 (a commercially-available anti-CD73 mAb, Astrazeneca) (antibody, from another filing, V domains shown) VH: EVQLLESGGGLVQPGGSLRLSCAASGFTFSSYAMSWVRQAPGKGLEWVSAISGSGGSTYYADSVKRRFTISRDNSKNTLYLQMNSLRAEDTAVYYCARDKGYYWYMDVWGQGTMVTVSS VL: QSVLTQPPSVSVSPGQTASITCSGDKVGDKYASWYQQKPGQSPVLVIYEDTKRLSGIPERFSGSNSGNTATLTISGTQAMDEADYYCQAWDTSFWVFGGGTKLTVL
